Patent US20170306049A1 (YEDA RESEARCH AND DEVELOPMENT, published 2017)

B1: mAb XC252 (antibody, V domains shown)
VH: EVQLQQSGAELVRPGVSVKISCKGSGYTFTDYAMHWVKQSHAKSLEWIGVISTYYGDPRDNQKFKGKATMTVDKSSSTAYMELARLTSEDSAIYYCARGDYDWYAIDYWGQGTSVTVSS
VL: DVVMTQTPLSLPVSLGDQASISCRSSQSIVHSDGNTYLEWYLQKPGQSPKLLIYKVSNRFSGVPDRFSGSGSGTDFTLKISRVEAEDLGVYYCFQGSHVPPTFGGGTKLEIK
notes: also called XC252-K2 (Lumi4 Tb cryptate labelled)
B2: anti-HER3 mAb NG33 (antibody, V domains shown)
VH: DVQLQESGPGLVKPSQSLSLTCSVTGYSITSGFYWSWIRQFPGNKLEWMGYIAYDGTSNYNPSLKNRISITRDTSKNQFFLKLKSVTNEDTPTYYCARGGGYYGQLLDYWGQGTSVTVSS
VL: DARMTQSPSSLSASLGDRVTISCRASQDISNYLNWYQQKPDGTVKVLIYNTAKLHSGVPSRFSGSGSGTDYSLTISNLEQEDFATYFCQQGKTLPWTFGGGTKLELK
B3: anti-HER3 mAb NG83 (antibody, V domains shown)
VH: QIQLVQSGPELKKRGETVKISCKASGYTFTNYGMNWVRQAPGKGLKCMGWINTYAGEPTYADDFKGRFAFSLDSSASTAYLQINNLKNEDMATYFCARGGITGAMDYWGQGTSVTVSS
VL: DVVMTQKTSSLSTSLGDRVTISCRASQDIRNYLNWYQQKPDGTVKLLIYYTSRLHSGVPSRFSGSGSGTDYSLTISDLEQEDIATYFCQQGNTLPWTFGGGTKLAIK
B4: anti-HER3 mAb NG140 (antibody, V domains shown)
VH: QVQLKESGPGLVKPSQSLSLTCSVTGYSITSGYYWNWIRQFPGNKLEWMGSIYYDGSNNYNPSLKNRISVTRDTSKNQFFLKLNSVTTEDTATYYCARDYDVGYAMDYWGQGASVTVSS
VL: DIVLTQSSSYLSVSLGGRVTITCKASDHINNWLAWYQQKPGNAPRLLISGATSLETGVPSRFSGSGSGKDYTLSITSLQTEDVATYYCQQYWSIPWTFGGGTKLEIK

Key:
[1] = molecular target: T1, HER3 fused with SNAP-Tag, expressed on HEK 293 cells and labelled with Lumi4-Tb (human, UniProt P21860 20-1342, SNAP-tag labelled with BG-Lumi4(Tb)); test: Tag-lite FRET, d2-labelled mAb on HEK293 cells with Lumi4(Tb)-labelled HER3-SNAP-Tag
T1 construct: whole, on cells; the parts follow the printed name HER3-SNAP-Tag; also called HER3-SNAP-Tag; HEK293-HER3-SNAP-Lumi4-Tb cells; not shown: SNAP-Tag (CISbio Tag-lite plasmid)
Experimental: FIGS. 3A-E show Kd determination of mAb to HER3 using the Tag-Lite technology. Cells are transfected with HER3-SNAP-Tag and labeled with BG-Lumi4(Tb), a SNAP-tag subtract. Following incubation with increasing concentrations of indicated d2 labeled mAb directed to HER3, the Kd was determined from the binding curve fitting. The binding curve was obtained by measuring the FRET between the donor Lumi4(Tb) and the acceptor d2-dye. The unspecific binding was evaluated by adding an excess of unlabelled Ab.
TABLE 2 Kd determination of indicated mAb to HER3 using the Tag- Lite technology. Cells were transfected with HER3-SNAP- Tag and labeled withBG-Lumi4(Tb), a SNAP-tag subtract. Following incubation with increasing concentrations of indicated d2 labeled mAb directed to HER3, the Kd was determined from the binding curve fitting. The binding curve was obtained by measuring the FRET between the donor Lumi4(Tb) and the acceptor d2-dye.

[2] = molecular target: T2, IgB3 (recombinant HER3 extracellular domain fused to a human IgG Fc domain) (human, UniProt P21860 20-643); test: ELISA, IgB3-coated microplate, purified mAb, HRP anti-mouse IgG
T2 construct: extracellular domain; Secreted from HEK-293 cells, purified on protein G / protein A; not shown: Fc domain of a human IgG1
Experimental: FIGS. 2A-D show monoclonal antibody targeting HER3 extracellular domain. (FIG. 2A) 96 well-plates were coated with 1.5 μg/ml of IgB3, blocked with PBS-BSA (1% weight/vol) and incubated for 1 h with various concentrations of purified mAbs under gentle shaking at RT. After washing, a second 1 h-incubation with HRP-labelled anti-mouse IgG was performed and followed by incubation with 2,2′-azino-bis (3-ethylbenzothiazoline-6-sulfonic acid) for 10 min. The OD at 415 nm was measured using by an ELISA microplate reader. […] After 2 washes, the cells were incubated for 1 h at 4° C. (in the dark) with a secondary anti-mouse IgG Ab coupled to AlexaFluor 488. The fluorescence intensity (F.I.) was measured on the LSRII flow cytometer. […] After 4 washes, the content bound to the beads was eluted and analyzed by immunoblotting (IB) with an antibody to HER3/ErbB-3.
The comparison of the capacity of purified mAbs to bind with IgB3 was evaluated using ELISA (FIG. 2A). […] Each antibody was labeled with the d2-dye, and by measuring the binding of the labeled-mAb to cells presenting Lumi4(Tb)-labeled HER3 using FRET, the KD was determined and reported in Table 2, below. The values obtained correlate with the different patterns of HER3 binding determined by FACS (FIGS. 2B and 2C), although they are distinct from the patterns of IgB3 binding determined using ELISA (FIG. 2A).

HER2 (ErbB2) = molecular target: T3, HER2 (ErbB2) (human, UniProt P04626 23-1255); test: flow cytometry on NIH/3T3 cells presenting HER2 alone
T3 construct: whole, on cells; also called NIH/3T3-HER2 cells; NIH/3T3-R2
Experimental: (§1) FIGS. 4A-B show specificity of monoclonal antibodies directed to HER3. (FIG. 4A) NIH/3T3-EGFR, -HER2, -HER3 or -EGFR/HER4 cells were incubated with 25 μg/ml of each mAb for 1.5 h at 4° C. After 2 washes, the cells were incubated for 1 h at 4° C. (in the dark) with a secondary anti-mouse IgG Ab coupled to AlexaFluor 488. The fluorescence intensity (F.I.) was measured on the LSRII flow cytometer. The negative control is made using an irrelevant mouse IgG as primary Ab. The positive control are the following mAb 565 (anti-EGFR), mAb L26 (anti-HER2), mAb 9F7 (anti-HER3), mAb 77 (anti-HER4). (FIG. 4B) The panel presents the geometric mean and the CV of the fluorescence intensity.

EGFR (ErbB1/HER1) = molecular target: T4, EGFR (ErbB1/HER1) (human, UniProt P00533 25-1210); test: flow cytometry on NIH/3T3 cells presenting EGFR alone
T4 construct: whole, on cells; also called NIH/3T3-EGFR cells; NIH/3T3-R1
Experimental: as §1

HER4 (ErbB4) = molecular target: T5, HER4 (ErbB4) (human, UniProt Q15303 26-1308); test: flow cytometry on NIH/3T3 cells presenting EGFR and HER4
T5 construct: whole, on cells; also called NIH/3T3-EGFR/HER4 cells; NIH/3T3-R1R4
Experimental: as §1

[3] = molecular target: T1, HER3 fused with SNAP-Tag, expressed on …; test: Tag-lite FRET KD of Table 2, compared with the other mAbs

T1 sequence (P21860 20-1342): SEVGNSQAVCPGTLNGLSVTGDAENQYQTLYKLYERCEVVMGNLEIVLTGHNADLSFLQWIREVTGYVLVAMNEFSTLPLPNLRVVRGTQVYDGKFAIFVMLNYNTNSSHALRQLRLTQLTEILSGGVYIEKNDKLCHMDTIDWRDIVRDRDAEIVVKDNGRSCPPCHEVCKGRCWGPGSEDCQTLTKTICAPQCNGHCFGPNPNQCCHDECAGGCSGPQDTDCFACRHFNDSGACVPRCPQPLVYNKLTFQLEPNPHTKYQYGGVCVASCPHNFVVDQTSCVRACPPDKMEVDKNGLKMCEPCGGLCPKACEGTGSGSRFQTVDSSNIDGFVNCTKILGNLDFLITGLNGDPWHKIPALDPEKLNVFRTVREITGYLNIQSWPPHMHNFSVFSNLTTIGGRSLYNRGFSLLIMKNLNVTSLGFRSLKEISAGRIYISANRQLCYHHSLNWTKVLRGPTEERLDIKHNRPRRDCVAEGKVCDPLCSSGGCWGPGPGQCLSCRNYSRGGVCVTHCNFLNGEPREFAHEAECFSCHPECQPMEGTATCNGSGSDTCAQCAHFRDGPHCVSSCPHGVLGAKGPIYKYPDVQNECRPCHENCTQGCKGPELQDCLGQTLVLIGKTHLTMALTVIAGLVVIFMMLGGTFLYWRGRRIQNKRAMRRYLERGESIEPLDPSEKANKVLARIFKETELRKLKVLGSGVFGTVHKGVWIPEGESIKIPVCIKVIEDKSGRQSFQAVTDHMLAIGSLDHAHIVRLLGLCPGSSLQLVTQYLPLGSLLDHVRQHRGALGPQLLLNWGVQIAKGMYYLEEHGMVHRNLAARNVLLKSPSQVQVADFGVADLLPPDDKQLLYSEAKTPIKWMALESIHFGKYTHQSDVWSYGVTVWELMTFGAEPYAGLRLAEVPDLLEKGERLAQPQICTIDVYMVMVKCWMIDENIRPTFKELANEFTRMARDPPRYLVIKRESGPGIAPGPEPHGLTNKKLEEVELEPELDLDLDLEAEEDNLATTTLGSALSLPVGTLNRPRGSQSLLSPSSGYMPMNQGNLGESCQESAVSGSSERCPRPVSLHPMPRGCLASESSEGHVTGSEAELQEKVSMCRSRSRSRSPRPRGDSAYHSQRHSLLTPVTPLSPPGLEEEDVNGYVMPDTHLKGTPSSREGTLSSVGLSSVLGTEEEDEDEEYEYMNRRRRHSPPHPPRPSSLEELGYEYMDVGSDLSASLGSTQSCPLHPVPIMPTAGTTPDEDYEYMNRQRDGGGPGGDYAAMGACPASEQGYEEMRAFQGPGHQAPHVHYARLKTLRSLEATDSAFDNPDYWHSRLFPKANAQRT
T2 sequence (P21860 20-643): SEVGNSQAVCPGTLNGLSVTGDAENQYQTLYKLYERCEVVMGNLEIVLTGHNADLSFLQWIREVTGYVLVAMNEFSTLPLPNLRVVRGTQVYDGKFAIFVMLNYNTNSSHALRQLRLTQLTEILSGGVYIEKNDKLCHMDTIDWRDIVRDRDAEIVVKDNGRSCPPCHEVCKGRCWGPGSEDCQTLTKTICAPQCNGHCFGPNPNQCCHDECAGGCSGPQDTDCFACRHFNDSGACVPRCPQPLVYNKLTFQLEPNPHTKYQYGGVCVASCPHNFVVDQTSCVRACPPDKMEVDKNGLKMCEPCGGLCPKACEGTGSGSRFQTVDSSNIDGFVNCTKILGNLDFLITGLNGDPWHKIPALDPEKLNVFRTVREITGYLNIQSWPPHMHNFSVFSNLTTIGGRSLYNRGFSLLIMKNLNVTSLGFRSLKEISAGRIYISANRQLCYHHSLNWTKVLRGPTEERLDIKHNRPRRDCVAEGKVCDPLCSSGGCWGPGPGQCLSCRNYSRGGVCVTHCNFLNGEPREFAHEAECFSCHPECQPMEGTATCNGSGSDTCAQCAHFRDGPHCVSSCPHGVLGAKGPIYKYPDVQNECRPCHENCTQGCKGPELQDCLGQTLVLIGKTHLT
T5 sequence (Q15303 26-1308): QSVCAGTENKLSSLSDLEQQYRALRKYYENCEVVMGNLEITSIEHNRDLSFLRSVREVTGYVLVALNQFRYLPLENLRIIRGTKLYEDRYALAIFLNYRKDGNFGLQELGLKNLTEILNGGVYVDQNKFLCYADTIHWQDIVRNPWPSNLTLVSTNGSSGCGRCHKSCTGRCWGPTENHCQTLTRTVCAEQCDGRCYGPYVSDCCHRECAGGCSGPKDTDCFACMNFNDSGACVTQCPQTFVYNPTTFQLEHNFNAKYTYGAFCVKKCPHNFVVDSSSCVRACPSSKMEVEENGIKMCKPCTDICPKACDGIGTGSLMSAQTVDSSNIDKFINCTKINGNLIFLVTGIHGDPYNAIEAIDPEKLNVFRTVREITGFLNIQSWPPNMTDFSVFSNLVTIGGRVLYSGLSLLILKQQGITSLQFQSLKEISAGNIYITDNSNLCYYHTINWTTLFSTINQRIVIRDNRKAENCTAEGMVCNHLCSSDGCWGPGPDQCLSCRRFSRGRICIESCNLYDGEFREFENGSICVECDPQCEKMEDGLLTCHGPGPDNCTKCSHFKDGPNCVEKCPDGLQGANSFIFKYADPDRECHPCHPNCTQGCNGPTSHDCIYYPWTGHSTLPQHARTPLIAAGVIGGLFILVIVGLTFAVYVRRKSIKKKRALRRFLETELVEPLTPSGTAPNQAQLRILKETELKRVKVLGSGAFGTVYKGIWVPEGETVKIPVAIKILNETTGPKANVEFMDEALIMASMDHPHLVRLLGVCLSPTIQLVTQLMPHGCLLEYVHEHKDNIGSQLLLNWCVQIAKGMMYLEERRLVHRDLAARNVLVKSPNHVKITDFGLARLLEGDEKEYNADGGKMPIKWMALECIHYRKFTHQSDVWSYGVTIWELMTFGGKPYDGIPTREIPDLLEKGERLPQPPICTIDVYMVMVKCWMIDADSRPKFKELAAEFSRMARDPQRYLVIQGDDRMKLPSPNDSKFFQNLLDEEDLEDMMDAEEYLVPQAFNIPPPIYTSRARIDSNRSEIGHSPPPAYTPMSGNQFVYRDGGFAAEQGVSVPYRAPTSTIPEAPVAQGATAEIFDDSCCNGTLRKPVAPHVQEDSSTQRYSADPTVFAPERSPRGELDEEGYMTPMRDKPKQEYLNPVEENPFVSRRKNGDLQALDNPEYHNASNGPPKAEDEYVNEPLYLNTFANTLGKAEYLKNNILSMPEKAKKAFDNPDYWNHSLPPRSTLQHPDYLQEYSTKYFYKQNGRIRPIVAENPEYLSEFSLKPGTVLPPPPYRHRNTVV

Binder | Kd [1] | EC50 [2] | binding result (HER2 (ErbB2)) | binding result (EGFR (ErbB1/HER1)) | binding result (HER4 (ErbB4)) | fold weaker affinity than the other mAbs [3]
B1 | 1.09 nM | 0.21 nM | no binding (tested: 25 µg/ml) | no binding (tested: 25 µg/ml) | no binding (tested: 25 µg/ml) | –
B2 | 2.96 nM | – | – | – | – | –
B3 | > 14 nM | – | – | – | – | 10 fold
B4 | 6.12 nM | 16.8 nM | – | – | – | –
